Assay results published in the supplement of paper PMC9170038.

Test system: MS2 coat protein
Experiment: apparent KD of MS2 coat protein; designed switch direction (-1 OFF switch, 1 ON switch): 1; higher = weaker reporter binding
How it was run: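 The apparent KD reported per design is the median over clusters of curve fits to normalised cluster fluorescence. The RNA switches were transcribed on Illumina chips by stalled E. coli RNA polymerase. SNAP-549-labelled MS2 coat protein was titrated from 0.7 or 1.5 nM, doubling up to 3 µM, in Tris-HCl pH 7.5 buffer containing KCl, MgCl2, BSA, DTT, tRNA and Tween-20, with no input, 200 uM small-molecule ligand, or an oligonucleotide input.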

[1] = input ligand: microRNA oligo, concentration not stated
[2] = Eterna round: R95, input ligand: microRNA oligo, concentration not stated
[3] = Eterna round: R95, input ligand: FMN 200 uM
[4] = Eterna round: R95, input ligand: none

Row | Sequence | apparent KD of MS2 coat protein (input ligand: FMN 200 uM) [nM] | apparent KD of MS2 coat protein [1] [nM] | apparent KD of MS2 coat protein (input ligand: none) [nM] | apparent KD of MS2 coat protein [2] [nM] | apparent KD of MS2 coat protein [3] [nM] | apparent KD of MS2 coat protein [4] [nM]
1 | GCCGGCUGGUGAGGAUAUGGCGCCUUGUUGGUGCCAGAAGGCAUGUCUAUUGACAUGAGGAUCACCCAUGUGUUGUCGUUGGCG [salish99_SSNG1_r04_612] (Eterna round: R96, puzzle: Same State NG 1) | 536 | 108 | 183 |  |  | 
2 | GCGAAGAGGUAAGGAUAUUCAUGGCGGAGACAUGAGGAUCACCCAUGUAGGAGACGAAAUCUAAGGGAGAAGGUACCAGGACGC [AK SSNG2-V2-14] (Eterna round: R96, puzzle: Same State NG 2) | 112 | 147 | 321 |  |  | 
3 | UACUUAGUGGUAGGAUAUGUAGGAUAUGGCGAGAGCUAAGCUUGGAAGUCACUUCAGCCAGAAGGACAGAAGGACCACUCUCUC [pwkr ssNG2 2FMN + F9.12] (Eterna round: R96, puzzle: Same State NG 2) | 98 | 17.4 | 97.1 |  |  | 
4 | ACUAGAUCGAAAGAUCUAGAAAACGAGUAACAUGAGGAUCACCCAUGUUCAUGUUGCUCGUCUUAAGCCGAAAGGCG [JL ALT 15] (Eterna round: R96, puzzle: Sensor for hsa-mir-208a) | 71.5 | 38 | 22.8 |  |  | 
5 | UUGUUUAGAAAUUAACAUGAGGAUCACCCAUGUAUUGGAUCAGAGGAUAUGCAUGUUUGAUUGUAGCAGAAGGCUGAUUGUUGA [JR_SSNG3_Sub029] (Eterna round: R96, puzzle: Same State NG 3) |  | 37.3 |  |  |  | 
6 | GAUUAACAUGAGGAUCACCCAUGUCGUUAUAUGGGAGGAUAUACGUGGACCGUAGUCCGCGUAGAAGGCCUAAUUG [Mat - Same State 1 - Mod of JL - D23] (puzzle: Same State 1) |  |  |  | 188 |  | 
7 | GCCGCGUUUCGCGCCUACAUGAGGAUCACCCAUGUUUGUAGGCAGGAUAUCGCUUGCUUUGCGGGCGAGAAGGGCUGUUGUGGC [salish99_SSNG3_R04_018] (Eterna round: R96, puzzle: Same State NG 3) | 36.8 | 56.8 | 51.6 |  |  | 
8 | GGACGUCAAUCUCCUACUUAAACAUGAGGAUCACCCAUGUCACAGGAUAUGAGUCCGAUUAGGACUCAGAAGGGUGAGACGUCC [Fiskers NG3ss - 50] (Eterna round: R96, puzzle: Same State NG 3) | 18.8 | 15.2 | 16 |  |  | 
9 | GGAGCCAAGGCAGGAUAUUCAUAUAAAUUAACAUGAGGAUCACCCAUGUAGGCCAGAAGGCCUUGGGAGAAGGGCCAUGGCUCG [Xeonanis - 13 mod8] (Eterna round: R96, puzzle: Same State NG 2) | 21.6 | 143 | 157 |  |  | 
10 | GUAGCAUACCGAGGAUAUUCAUAAAAUAAAUAAACAUGAGGAUCACCCAUGUGGCGAAAGCCUUGGGAGAAGGCGGAAUGCUAC [Xeonanis - 20 Mod73] (Eterna round: R96, puzzle: Same State NG 2) | 20 | 370 | 359 |  |  | 
11 | CUGAGCGAUCAAGGAUAUCACGUCGAUUAGACGUGAGAAGGUGAUAAUUACAUGAGGAUCACCCAUGUAUAACAUGAAGCUCAG [SSNG1/9-A2] (Eterna round: R96, puzzle: Same State NG 1) | 16 | 17.3 | 19.8 |  |  | 
12 | UCUUGGUUUUUGCUCGUUUUUUGUGUUGAACAUGAGGAUCACCCAUGUAUUGUACGGUCCAGUUUGAUAAUGGUCCG [JMF 34] (puzzle: Sensor for hsa-mir-208a) |  |  |  | 14.3 | 25.6 | 27.3
13 | GUAAAACAUGAGGAUCACCCAUGUCAACAAAGUCGAGGAUAUGGGCAAAUAAAAUAAGAACCAGAAGGCGAAUAAG [salish99_SS1_r3_009] (Eterna round: R96, puzzle: Same State 1) | 45.9 | 125 | 235 |  |  | 
14 | CAGCACUGUCGAGAGGAUAUGCGGUGAUGGACAUGAGGAUCACCCAUGUUAGCGACAGCAUCACGGCAGAAGGCUCUACUGCUGC [Soteed Omei mod 32] (puzzle: Same State 2) |  |  |  | 12.3 |  | 
15 | AACAAUCUAUCUGAGGAUAUCAUGAAAUAAACAUGAGGAUCACCCAUGUUCAGGAAAACUGCAUAUGAGAAGGCAGAUAGAUUGA [salish99_ss2_r3_035] (puzzle: Same State 2) |  |  |  | 16.2 | 10.4 | 15.3
16 | AGUCCAGCCUGAGCUGGACAAAAGCAUGUACAUGAGGAUCACCCAUGUCAUGUACAAGCUUUUUGCUCGAAAUAAUA [Mat - hsa-mir-208a - Mod of JL - D32] (Eterna round: R96, puzzle: Sensor for hsa-mir-208a) | 626 | 14.4 | 561 |  |  | 
17 | UGUUAACAUGAGGAUCACCCAUGUCAAAUGAAUGCAGGAUAUGGGAAGUAAUAAGAUAAACCAGAAGGGCAAGUUG [Altered State 1-17 - Jieux - Same State 1] (puzzle: Same State 1) |  |  |  | 162 | 49.4 | 311
18 | GGUCCAGCCUGAGCUGGACAAAAGCAUGUACAUGAGGAUCACCCAUGUCAUGUACAAGCUUUUUGCUCGUCUAAAUU [Mat - hsa-mir-208a - 94] (puzzle: Sensor for hsa-mir-208a) |  |  |  | 15.1 | 781 | 578
19 | UGAAUAUCUACAGGAUAUGAGUUGUAUAGUGGAUCAGAAGGGUGGGUGUUUUGCACGGUGUGUUACAUGAGGAUCACCCAUGUU [SameState NG1 #25] (Eterna round: R96, puzzle: Same State NG 1) | 302 | 139 | 324 |  |  | 
20 | GGUCGGACUACAUGAGGAUCACCCAUGUGUGCGGAAACGCCAUAGGAUAUCUGUCCGAAAAGGUCAGAGAAGGGUGAACCGACC [Fiskers NG3ss - 67] (Eterna round: R96, puzzle: Same State NG 3) | 882 | 30.1 | 73.9 |  |  | 
21 | ACUCAGUACAAUUUAGAUCUACAUGAGGAUCACCCAUGUACUGAGGAUAUCAGCUCGAAUAGAGCUGAGAAGGCAGUUGUACUA [SSNG3/10-A1] (Eterna round: R96, puzzle: Same State NG 3) | 102 | 138 | 248 |  |  | 
22 | GGUCCAGCCUGAGCUGGACAAAAGCAUGUACAUGAGGAUCACCCAUGUCAUGUACAAGCUUUUUGCUCGUCUUAAUA [Mat - hsa-mir-208a - 89] (puzzle: Sensor for hsa-mir-208a) |  |  |  | 15 | 583 | 548
23 | CCGAUGAUAGGACAGGAUAUGACUGUCGUCACAUGAGGAUCACCCAUGUCCCGGCAAUGCCACCGUUAGAAGGGUCCCAUCUCGG [Uslainarin] (puzzle: Same State 2) |  |  |  | 15.6 |  | 
24 | UGCCUGAGUCGAGGAUAUUAUGGAUCAAUUAAUACAUGAGGAUCACCCAUGUAAUUAAUUUAACAUGAGAAGGCGACUCAGGCU [SSNG2/10-A3] (Eterna round: R96, puzzle: Same State NG 2) |  | 7.93 |  |  |  | 
